Test results from patent US20220177587A1, “METHODS AND USES OF VARIANT CD80 FUSION PROTEINS AND RELATED CONSTRUCTS” (Alpine Immune Sciences, Inc., priority 2018, published 2022).

What was measured:
CD28 [1] = target: T1, CD28 (Homo sapiens, UniProt P10747); assay: Flow binding to Jurkat/IL2 reporter cells (CD28); parameters: host or cells: Jurkat cells expressing an IL-2-luciferase reporter; details: 33.3 nM; for CD28 MFI at 33.3 nM: Jurkats (CD28)
How it was run: (§1)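 Binding EC50 and PE mean fluorescence intensity derived by flow cytometry using PE-labelled anti-human Fc secondary. Target cells were CTLA4- or PD-L1-transfected CHO lines and CD28-expressing Jurkat/IL2 reporter cells, stained with fusion proteins on ice for 45 min following BSA blocking.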

CD28 [2] = target: T1, CD28; assay: Jurkat/IL2 + CHO/OKT3 +/- PD-L1 reporter assay: PD-L1-dependent CD28 costimulation; type: cell-based; parameters: host or cells: Jurkat cells expressing an IL-2-luciferase reporter; details: Jurkat/IL2 + CHO/OKT3/PD-L1, 5.0 nM
How it was run: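 Readout is relative luminescence from lysed cocultures: test protein given 15 min at room temperature to Jurkat cells before adding CHO artificial APCs displaying OKT3 alone or OKT3 plus PD-L1, then 5 h at 37 °C, 5% CO2.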

huCTLA4 = huCTLA4 (Homo sapiens, UniProt P16410); assay: Flow binding to CHO cells stably expressing CTLA4; parameters: huCTLA4 and huPD-L1, full-length mammalian surface expression constructs were generated; expressed in transfected cells; host or cells: CHO cells, lentiviral transduction, sorted to >98% purity; details: 33.3 nM; for CTLA4 MFI at 33.3 nM: CHO cells stably expressing CTLA4
How it was run: as §1

huPD-L1 = huPD-L1 (Homo sapiens, UniProt Q9NZQ7); assay: Flow binding to CHO cells stably expressing PD-L1; parameters: huCTLA4 and huPD-L1, full-length mammalian surface expression constructs were generated; expressed in transfected cells; host or cells: CHO cells, lentiviral transduction, sorted to >98% purity; details: for PD-L1 Fold change to WT CD80 / PD-L1 MFI at 33.3 nM: 33.3 nM; for PD-L1 MFI at 33.3 nM: CHO cells stably expressing PD-L1
How it was run: as §1

[3] = Table E11, listed as WT CD80 ECD-Fc = 1.0
[4] = Table E16, listed as CD80 WT IgV-Fc = 1.0
[5] = Table E10, relative to CD80 WT IgV-Fc
[6] = Table E10, binding to PD-L1 compared to binding to CD28

Chain of huPD-L1 (Q9NZQ7 19-290): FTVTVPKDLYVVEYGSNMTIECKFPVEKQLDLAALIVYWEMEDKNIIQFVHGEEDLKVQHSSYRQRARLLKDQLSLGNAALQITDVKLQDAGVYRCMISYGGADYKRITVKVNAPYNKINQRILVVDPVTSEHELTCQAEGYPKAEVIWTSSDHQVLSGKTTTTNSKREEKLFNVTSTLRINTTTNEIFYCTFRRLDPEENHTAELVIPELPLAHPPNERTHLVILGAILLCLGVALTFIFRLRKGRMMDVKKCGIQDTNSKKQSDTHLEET
Chain of huCTLA4 (P16410 36-223): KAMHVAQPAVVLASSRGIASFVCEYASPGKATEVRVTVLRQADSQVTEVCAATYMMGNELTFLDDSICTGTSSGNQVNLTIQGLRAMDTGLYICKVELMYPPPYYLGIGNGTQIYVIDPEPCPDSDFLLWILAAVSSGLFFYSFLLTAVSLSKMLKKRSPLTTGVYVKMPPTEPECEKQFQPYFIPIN

Molecule	CD28 Fold change to WT CD80 (CD28 [1]; [3])	CD28 MFI at 33.3 nM (CD28 [1]; Table E11)	Fold Increase over WT CD80-IgV-Fe (CD28 [2]; Table E13)	Relative Luciferase Units (RLU), CD80 Cone 5.0 nM (CD28 [2]; Table E13)	CTLA4 Fold change to WT CD80 (huCTLA4; [3])	CTLA4 MFI at 33.3 nM (huCTLA4; Table E11)	PD-L1 Fold change to WT CD80 (huPD-L1; [3])	PD-L1 MFI at 33.3 nM (huPD-L1; Table E11)	Ratio of PDL1:CD28 (huPD-L1; Table E11, MFI at 33.3 nM)	CD28 MFI at 33.3 nM (CD28 [1]; Table E10)	CD28 Fold change to WT CD80 (CD28 [1]; [5])	Fold Increase over WT CD80-IgV-Fe (CD28 [2]; Table E12)	Relative Luciferase Units (RLU), CD80 Cone 5.0 nM (CD28 [2]; Table E12)	CTLA4 MFI at 33.3 nM (huCTLA4; Table E10)	CTLA4 Fold change to WT CD80 (huCTLA4; [5])	PD-L1 MFI at 33.3 nM (huPD-L1; Table E10)	PD-L1 Fold change to WT CD80 (huPD-L1; [5])	Ratio of PDL1:CD28 (huPD-L1; [6])	also measured
H18Y/E35D/M47L/Y53F/V68M/A71G (protein, UniProt P33681 35-288, looked up, variant H18Y E35D M47L Y53F V68M A71G) T-lymphocyte activation …: VIHVTKEVKEVATLSCGYNVSVEELAQTRIYWQKDKKMVLTMMSGDLNIWPEFKNRTIFDITNNLSIMILGLRPSDEGTYECVVLKYEKDAFKREHLAEVTLSVKADFPTPSISDFEIPTSNIRRIICSTSGGFPEPHLSWLENGEELNAINTTVSQDPETELYAVSSKLDFNMTTNHSFMCLIKYGHLRVNQTFNWNTTKQEHFPDNLLPSWAITLISVNGIFVICCLTYCFAPRCRERRRNERLRRESVRPV	0.5	15.7	0.3	120 RLU	0.1	146	99.1	5105	325.2										CD28 Fold change to WT CD80 (CD28 [1]; [4]): 11.6; CD28 MFI at 33.3 nM (CD28 [1]; Table E16, consensus variants): 478; Fold Increase over WT CD80-IgV-Fe (CD28 [2]; Table E17): 5.7; Relative Luciferase Units (RLU), CD80 Cone 5.0 nM (CD28 [2]; Table E17, consensus variants): 2277 RLU; CTLA4 Fold change to WT CD80 (huCTLA4; [4]): 18.7; CTLA4 MFI at 33.3 nM (huCTLA4; Table E16, consensus variants): 19528; PD-L1 Fold change to WT CD80 (huPD-L1; [4]): 135.1; Ratio of PDL1:CD28 (huPD-L1; Table E16, MFI at 33.3 nM): 20.0; PD-L1 MFI at 33.3 nM (huPD-L1; Table E16, consensus variants): 9576
H18Y/E35D/M38I/M47L/V68M/L85M (protein, UniProt P33681 35-288, looked up, variant H18Y E35D M38I M47L V68M L85M) T-lymphocyte activation …: VIHVTKEVKEVATLSCGYNVSVEELAQTRIYWQKDKKIVLTMMSGDLNIWPEYKNRTIFDITNNLSIMILALRPSDEGTYECVVMKYEKDAFKREHLAEVTLSVKADFPTPSISDFEIPTSNIRRIICSTSGGFPEPHLSWLENGEELNAINTTVSQDPETELYAVSSKLDFNMTTNHSFMCLIKYGHLRVNQTFNWNTTKQEHFPDNLLPSWAITLISVNGIFVICCLTYCFAPRCRERRRNERLRRESVRPV	0.5	16.7	0.5	198 RLU	0.1	139	69.7	3589	214.9										
Q27H/E35D/M47I (protein) VIHVTKEVKEVATLSCGHNVSVEELAHTRIYWQKDKKMVLTMMSGDINIWPEYKNRTIFDITNNLSIVILALRPSDEGTYECVVLKYEKDAFKREHLAEVTLSVKAD										756	11.5	4.6	1829 RLU	27530	14.4	3424	48.7	5	
H18Y/E35D (protein) VIHVTKEVKEVATLSCGYNVSVEELAQTRIYWQKDKKMVLTMMSGDMNIWPEYKNRTIFDITNNLSIVILALRPSDEGTYECVVLKYEKDAFKREHLAEVTLSVKAD										479	7.3	5.0	1990 RLU	26258	13.7	3526	50.2	7	
E35D/D46E (protein) VIHVTKEVKEVATLSCGHNVSVEELAQTRIYWQKDKKMVLTMMSGEMNIWPEYKNRTIFDITNNLSIVILALRPSDEGTYECVVLKYEKDAFKREHLAEVTLSVKAD										779	11.8	4.9	1961 RLU	27921	14.6	3757	53.4	5	
Q27L/E35D/M47V/I61V/L85M (protein) VIHVTKEVKEVATLSCGHNVSVEELALTRIYWQKDKKMVLTMMSGDVNIWPEYKNRTIFDVTNNLSIVILALRPSDEGTYECVVMKYEKDAFKREHLAEVTLSVKAD										230	3.5	2.9	1166 RLU	27881	14.6	2705	38.5	12	

More lines, main results first:

CD28 Fold change to WT CD80 (CD28 [1]; [3])	CD28 MFI at 33.3 nM (CD28 [1]; Table E11)	Fold Increase over WT CD80-IgV-Fe (CD28 [2]; Table E13)	Relative Luciferase Units (RLU), CD80 Cone 5.0 nM (CD28 [2]; Table E13)	CTLA4 Fold change to WT CD80 (huCTLA4; [3])	CTLA4 MFI at 33.3 nM (huCTLA4; Table E11)	PD-L1 Fold change to WT CD80 (huPD-L1; [3])	PD-L1 MFI at 33.3 nM (huPD-L1; Table E11)	Ratio of PDL1:CD28 (huPD-L1; Table E11, MFI at 33.3 nM)	CD28 MFI at 33.3 nM (CD28 [1]; Table E10)	CD28 Fold change to WT CD80 (CD28 [1]; [5])	Fold Increase over WT CD80-IgV-Fe (CD28 [2]; Table E12)	Relative Luciferase Units (RLU), CD80 Cone 5.0 nM (CD28 [2]; Table E12)	CTLA4 MFI at 33.3 nM (huCTLA4; Table E10)	CTLA4 Fold change to WT CD80 (huCTLA4; [5])	PD-L1 MFI at 33.3 nM (huPD-L1; Table E10)	PD-L1 Fold change to WT CD80 (huPD-L1; [5])	Ratio of PDL1:CD28 (huPD-L1; [6])	Molecule	also measured
48.3	1517	2.7	1072 RLU	9.3	16243	328.4	16912	11.1										E35D/M43I/M47L/V68M (protein, UniProt P33681 35-288, looked up, variant E35D M43I M47L V68M) T-lymphocyte activation …: VIHVTKEVKEVATLSCGHNVSVEELAQTRIYWQKDKKMVLTMISGDLNIWPEYKNRTIFDITNNLSIMILALRPSDEGTYECVVLKYEKDAFKREHLAEVTLSVKADFPTPSISDFEIPTSNIRRIICSTSGGFPEPHLSWLENGEELNAINTTVSQDPETELYAVSSKLDFNMTTNHSFMCLIKYGHLRVNQTFNWNTTKQEHFPDNLLPSWAITLISVNGIFVICCLTYCFAPRCRERRRNERLRRESVRPV	
12.2	383	3.9	1546 RLU	9.1	16013	485.9	25024	65.3										E35D/M47L/Y53F/V68M/A71G/K93R/E95V (protein, UniProt P33681 35-288, looked up, variant E35D M47L Y53F V68M A71G K93R E95V) T-lymphocyte activation …: VIHVTKEVKEVATLSCGHNVSVEELAQTRIYWQKDKKMVLTMMSGDLNIWPEFKNRTIFDITNNLSIMILGLRPSDEGTYECVVLKYEKDAFRRVHLAEVTLSVKADFPTPSISDFEIPTSNIRRIICSTSGGFPEPHLSWLENGEELNAINTTVSQDPETELYAVSSKLDFNMTTNHSFMCLIKYGHLRVNQTFNWNTTKQEHFPDNLLPSWAITLISVNGIFVICCLTYCFAPRCRERRRNERLRRESVRPV	
									164	2.5	3.5	1413 RLU	30289	15.8	2880	41.0	18	E35D/D46E/L85M (protein) VIHVTKEVKEVATLSCGHNVSVEELAQTRIYWQKDKKMVLTMMSGEMNIWPEYKNRTIFDITNNLSIVILALRPSDEGTYECVVMKYEKDAFKREHLAEVTLSVKAD	
									72.4	1.1	2.8	1136 RLU	30262	15.8	2191	31.2	30	E35D/T41S/N48T (protein) VIHVTKEVKEVATLSCGHNVSVEELAQTRIYWQKDKKMVLSMMSGDMTIWPEYKNRTIFDITNNLSIVILALRPSDEGTYECVVLKYEKDAFKREHLAEVTLSVKAD	
									3450	52.3	1.0	395 RLU	32189	16.8	2818	40.1	1	E35D/D46E/A91G (protein) VIHVTKEVKEVATLSCGHNVSVEELAQTRIYWQKDKKMVLTMMSGEMNIWPEYKNRTIFDITNNLSIVILALRPSDEGTYECVVLKYEKDGFKREHLAEVTLSVKAD	
